Assay results as given in publication PMC6029887 (Cell reports, 2018).

How the values were obtained:
[1] = biological target: Cadherin-6 Y20L H97Q (LQ) specificity mutant, adhesive fragment (mouse) (mouse); experiment: AUC
[2] = biological target: chimera cad-11EC16EC2 (cadherin-11 EC1 joined to cadherin-6 EC2) (mouse) (UniProt P97326); experiment: AUC
[3] = biological target: Cadherin-6 M3V Y20L H97Q E89P (VLQP) specificity mutant, adhesive fragment (mouse) (mouse); experiment: AUC
[4] = biological target: chimera cad-6EC111EC2 (cadherin-6 EC1 joined to cadherin-11 EC2) (mouse); experiment: AUC
[5] = biological target: cadherin-18 EC1-EC2 adhesive fragment (mouse), wild-type (mouse); experiment: AUC
[6] = biological target: Cadherin-11 L20Y Q97H (YH) specificity mutant, adhesive fragment (mouse) (mouse); experiment: AUC
[7] = biological target: Cadherin-11 V3M L20Y Q97H P89E (MYHE) specificity mutant, adhesive fragment (mouse) (mouse); experiment: AUC
[8] = biological target: the molecule itself; experiment: AUC
[9] = biological target: T1, Cys-tagged cadherin-10 adhesive fragment (mouse) (mouse, UniProt P70408 55-261); experiment: SPR
T1 sequence: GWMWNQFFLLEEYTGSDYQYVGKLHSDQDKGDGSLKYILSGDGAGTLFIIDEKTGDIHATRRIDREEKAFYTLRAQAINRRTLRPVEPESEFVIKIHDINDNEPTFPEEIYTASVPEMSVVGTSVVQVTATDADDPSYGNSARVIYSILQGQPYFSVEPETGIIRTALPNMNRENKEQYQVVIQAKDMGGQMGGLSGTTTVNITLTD

[10] = biological target: T2, Cys-tagged cadherin-7 adhesive fragment (mouse) (mouse, UniProt Q8BM92 48-254); experiment: SPR
T2 sequence: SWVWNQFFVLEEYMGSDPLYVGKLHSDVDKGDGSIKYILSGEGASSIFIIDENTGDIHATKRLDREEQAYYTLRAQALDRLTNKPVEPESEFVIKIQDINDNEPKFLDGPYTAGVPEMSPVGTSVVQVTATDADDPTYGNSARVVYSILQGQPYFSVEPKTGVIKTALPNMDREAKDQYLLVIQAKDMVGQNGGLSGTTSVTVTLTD

[11] = biological target: T3, Cys-tagged cadherin-6 adhesive fragment (mouse) (mouse, UniProt P97326 54-260); experiment: SPR
T3 sequence: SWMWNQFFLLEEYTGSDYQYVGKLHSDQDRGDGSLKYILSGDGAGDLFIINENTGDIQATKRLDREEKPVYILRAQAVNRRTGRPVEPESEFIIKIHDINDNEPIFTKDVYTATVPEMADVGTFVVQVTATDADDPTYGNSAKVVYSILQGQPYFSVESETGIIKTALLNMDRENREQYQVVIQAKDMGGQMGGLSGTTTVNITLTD

In the case of “Cadherin-6 Y20L H97Q (LQ) specificity mutant, adhesive fragment (mouse) (domain or fragment)”, the Kd [1] is reported as 9.63 µM.

“chimera cad-11EC16EC2 (cadherin-11 EC1 joined to cadherin-6 EC2) (from UniProt P97326 151-260) (domain or fragment)” showed a Kd [2] of 15.6 µM.

Molecule “Cadherin-6 M3V Y20L H97Q E89P (VLQP) specificity mutant, adhesive fragment (mouse) (domain or fragment)” has a Kd [3] of 6.73 µM.

“chimera cad-6EC111EC2 (cadherin-6 EC1 joined to cadherin-11 EC2) (domain or fragment)” gave a Kd [4] of 5.6 µM.

In the case of “cadherin-18 EC1-EC2 adhesive fragment (mouse), wild-type (domain or fragment)”, the Kd [5] is reported as 16.8 µM.

“Cadherin-11 L20Y Q97H (YH) specificity mutant, adhesive fragment (mouse) (domain or fragment)” gave a Kd [6] of 11.1 µM.

In the case of “Cadherin-11 V3M L20Y Q97H P89E (MYHE) specificity mutant, adhesive fragment (mouse) (domain or fragment)”, the Kd [7] is reported as 8.2 µM.

B1: cadherin-6 EC1-EC2 adhesive fragment (mouse), wild-type (domain or fragment)
chain: SWMWNQFFLLEEYTGSDYQYVGKLHSDQDRGDGSLKYILSGDGAGDLFIINENTGDIQATKRLDREEKPVYILRAQAVNRRTGRPVEPESEFIIKIHDINDNEPIFTKDVYTATVPEMADVGTFVVQVTATDADDPTYGNSAKVVYSILQGQPYFSVESETGIIKTALLNMDRENREQYQVVIQAKDMGGQMGGLSGTTTVNITLTD
B1 was tested, and the Kd [8] was 3.1 µM, the binding result [9] was “binds” and the binding result [10] was “binds”.

B2: cadherin-12 EC1-EC2 adhesive fragment (mouse), wild-type (domain or fragment)
chain: GWVWNQFFVLEEYMGSEPQYVGKLHSDLDKGEGTVKYTLSGDGAGTVFTIDETTGDIHAIRSLDREEKPFYTLRAQAVDIETRKPLEPESEFIIKVQDINDNEPKFLDGPYVASVPEMSPVGAYVLQVKATDADDPTYGNSARVVYSILQGQPYFSIDPKTGVIRTALPNMDREVKEQYQVLIQAKDMGGQLGGLAGTTVVNITLTDVNDNPPRF
With B2 the Kd [8] was 8.3 µM.

B3: cadherin-22 EC1-EC2 adhesive fragment (mouse), wild-type (domain or fragment)
chain: GWVWNQFFVVEEYTGTEPLYVGKIHSDSDEGDGTIKYTISGEGAGTIFLIDELTGDIHATERLDREQKTFYTLRAQARDRATNRLLEPESEFIIKVQDINDSEPRFLHGPYIGSVAELSPTGTSVMQVMASDADDPTYGSSARLVYSVLDGEHHFTVDPKTGVIRTAVPDLDRESQERYEVVIQATDMAGQLGGLSGSTTVTIVVTD
With B3 the Kd [8] was 3.9 µM.

B4: cadherin-7 EC1-EC2 adhesive fragment (mouse), wild-type (domain or fragment)
chain: SWVWNQFFVLEEYMGSDPLYVGKLHSDVDKGDGSIKYILSGEGASSIFIIDENTGDIHATKRLDREEQAYYTLRAQALDRLTNKPVEPESEFVIKIQDINDNEPKFLDGPYTAGVPEMSPVGTSVVQVTATDADDPTYGNSARVVYSILQGQPYFSVEPKTGVIKTALPNMDREAKDQYLLVIQAKDMVGQNGGLSGTTSVTVTLTD
For B4, the Kd [8] was 32.2 µM, the binding result [11] was “binds” and the binding result [9] was “binds”.

B5: cadherin-20 EC1-EC2 adhesive fragment (mouse), wild-type (domain or fragment)
chain: SWVWNQFFVLEEYTGTDPLYVGKLHSDMDRGDGSIKYILSGEGAGIVFTIDDTTGDIHAIQRLDREERAQYTLRAQALDRRTGRPMEPESEFIIKIQDINDNEPKFLDGPYIATVPEMSPVGTSVIQVTATDADDPTYGNSARVVYSILQGQPYFSVDSKTGVIRTALMNMDREAKEYYEVIIQAKDMGGQLGGLAGTTTVNITLSDVNDNPPRF
For B5, the Kd [8] was 9.3 µM.

B6: cadherin-9 EC1-EC2 adhesive fragment (mouse), wild-type (domain or fragment)
chain: GWMWNQFFLLEEYTGTDTQYVGKLHTDQDKGDGNLKYILTGDGAGNLFVIDENTGDIHAAKRLDREEKSLYILRAKAIDRKTGRQVEPESEFIIKIHDINDNEPKFTKDLYTASVPEMSGVGTSVIQVTATDADDANYGNSAKVVYSILQGQPYFSVDPESGIIKTALPDMSRENKEQYQVVIQAKDMGGQMGGLSGTTTVNITLTDVNNNPPRF
In the case of B6, the Kd [8] is reported as 17 µM.

B7: cadherin-24 EC1-EC3 fragment (mouse), wild-type (domain or fragment)
chain: SWVWNQFFVIEEYSGPEPVLIGKLHSDVDRGEGRTKYLLTGEGAGTVFVIDEATGNIHVTKSLDREEKAQYVLLAQAVDRASNRPLEPPSEFIIKVQDINDNPPVFPLGPYHATVPEMSNVGTSVIQVTAHDADDPSYGNSAKLVYTVLDGLPFFSVDPQTGVVRTAIPNMDRETQEEFLVVIQAKDMGGHMGGLSGSTTVTVTLSDVNDNPPKFPQSLYQFSVVETAGPGTLVGRLKAQDPDLGDNALVAYSILNGEGSEVFSISTDSQGQDGLLTVRKPLDFETRRSYTFRVEATNTLIDPAYLRRGPFKDVASVRVTVQDAPEPPAF
B7 was tested, and the Kd [8] was 8.2 µM.

B8: cadherin-8 EC1-EC3 fragment (mouse), wild-type (domain or fragment)
chain: GWVWNQMFVLEEFSGPEPILVGRLHTDLDPGSKKIKYILSGDGAGTIFQINDITGDIHAIKRLDREEKAEYTLTAQAVDFETNKPLEPPSEFIIKVQDINDNAPEFLNGPYHATVPEMSILGTSVTNVTATDADDPVYGNSAKLVYSILEGQPYFSIEPETAIIKTALPNMDREAKEEYLVVIQAKDMGGHSGGLSGTTTLTVTLTDVNDNPPKFAQSLYHFSVPEDVVLGTAIGRVKANDQDIGENAQSSYDIIDGDGTALFEITSDAQAQDGVIRLRKPLDFETKKSYTLKVEAANIHIDPRFSSRGPFKDTATVKIVVEDADEPPVF
B8 was tested, and the Kd [8] was 15 µM.

B9: cadherin-10 EC1-EC2 adhesive fragment (mouse), wild-type (domain or fragment)
chain: GWMWNQFFLLEEYTGSDYQYVGKLHSDQDKGDGSLKYILSGDGAGTLFIIDEKTGDIHATRRIDREEKAFYTLRAQAINRRTLRPVEPESEFVIKIHDINDNEPTFPEEIYTASVPEMSVVGTSVVQVTATDADDPSYGNSARVIYSILQGQPYFSVEPETGIIRTALPNMNRENKEQYQVVIQAKDMGGQMGGLSGTTTVNITLTD
For B9, the Kd [8] was 42.2 µM, the binding result [11] was “binds” and the binding result [10] was “binds”.

B10: cadherin-11 EC1-EC2 adhesive fragment (mouse), wild-type (domain or fragment)
chain: GWVWNQFFVIEEYTGPDPVLVGRLHSDIDSGDGNIKYILSGEGAGTIFVIDDKSGNIHATKTLDREERAQYTLMAQAVDRDTNRPLEPPSEFIVKVQDINDNPPEFLHEIYHANVPERSNVGTSVIQVTASDADDPTYGNSAKLVYSILEGQPYFSVEAQTGIIRTALPNMDREAKEEYHVVIQAKDMGGHMGGLSGTTKVTITLTDVNDNPPKF
Work on B10 yielded a Kd [8] of 33.8 µM.
